From PMC9859756, “OASL phase condensation induces amyloid-like fibrillation of RIPK3 to promote virus-induced necroptosis” (Nature Cell Biology, 2023) come the findings set out here.

In assay [1] the target is T1, eGFP C-terminal fused full-length human OASL (human, UniProt Q15646 1-514).
T1 construct: also called OASL–GFP; GFP-tagged full-length OASL; source: E. coli BL21 DE3 (pLys), purified (glutathione sepharose 4B, GST removed with PreScission protease); not shown: eGFP, C-terminal, kept
T1 sequence (looked up): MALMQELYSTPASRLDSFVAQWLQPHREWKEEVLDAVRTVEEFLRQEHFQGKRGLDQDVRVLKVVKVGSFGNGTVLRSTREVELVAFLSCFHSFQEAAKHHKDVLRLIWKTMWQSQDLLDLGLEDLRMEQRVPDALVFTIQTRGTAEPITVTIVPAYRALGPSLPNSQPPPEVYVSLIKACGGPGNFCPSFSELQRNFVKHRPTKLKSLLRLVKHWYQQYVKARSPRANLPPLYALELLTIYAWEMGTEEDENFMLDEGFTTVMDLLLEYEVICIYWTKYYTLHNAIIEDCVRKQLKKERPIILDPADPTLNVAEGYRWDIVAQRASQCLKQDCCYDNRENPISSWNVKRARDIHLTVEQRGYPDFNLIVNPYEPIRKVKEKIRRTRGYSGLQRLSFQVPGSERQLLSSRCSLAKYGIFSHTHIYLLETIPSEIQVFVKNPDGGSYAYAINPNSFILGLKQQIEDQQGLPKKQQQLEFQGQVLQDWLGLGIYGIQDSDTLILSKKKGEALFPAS
Put plainly: in vitro recruitment into phase-separated droplets (fluorescence microscopy). The note with it: both partners purified.

For assay [2], the target named is T2, mCherry C-terminal fused full-length human RIPK3 (human, UniProt Q9Y572 1-518).
T2 construct: also called RIPK3–mCherry; mCherry-tagged full-length RIPK3; source: E. coli BL21 DE3 (pLys), purified (glutathione sepharose 4B, GST removed with PreScission protease); not shown: mCherry, C-terminal, kept
Described as above. The conditions noted are these: both partners purified.

B1: BFP C-terminal fused full-length human ZBP1 (natural protein, UniProt Q9H171 1-429, looked up)
chain: MAQAPADPGREGHLEQRILQVLTEAGSPVKLAQLVKECQAPKRELNQVLYRMKKELKVSLTSPATWCLGGTDPEGEGPAELALSSPAERPQQHAATIPETPGPQFSQQREEDIYRFLKDNGPQRALVIAQALGMRTAKDVNRDLYRMKSRHLLDMDEQSKAWTIYRPEDSGRRAKSASIIYQHNPINMICQNGPNSWISIANSEAIQIGHGNIITRQTVSREDGSAGPRHLPSMAPGDSSTWGTLVDPWGPQDIHMEQSILRRVQLGHSNEMRLHGVPSEGPAHIPPGSPPVSATAAGPEASFEARIPSPGTHPEGEAAQRIHMKSCFLEDATIGNSNKMSISPGVAGPGGVAGSGEGEPGEDAGRRPADTQSRSHFPRDIGQPITPSHSKLTPKLETMTLGNRSHKAAEGSHYVDEASHEGSWWGGGI
notes: also called ZBP1–BFP; not shown: BFP, C-terminal, kept
In the case of B1, the binding result in assay [1] is “binds”.

B2: mCherry C-terminal fused C-terminal unstructured region of human RIPK3 (RIPK3 295–518) (domain or fragment, UniProt Q9Y572 295-518, looked up)
chain: NAAVSTVKDFLSQLRSSNRRFSIPESGQGGTEMDGFRRTIENQHSRNDVMVSEWLNKLNLEEPPSSVPKKCPSLTKRSRAQEEQVPQAWTAGTSSDSMAQPPQTPETSTFRNQMPSPTSTGTPSPGPRGNQGAERQGMNWSCRTPEPNPVTGRPLVNIYNCSGVQVGDNNYLTMQQTTALPTWGLAPSGKGRGLQHPPPVGSQEGPKDPEAWSRPQGWYNHSGK
notes: also called RIPK3_(295–518)–mCherry; C-terminal RIPK3_(295–518); source: E. coli BL21 DE3 (pLys), purified (glutathione sepharose 4B, GST removed with PreScission protease); not shown: mCherry, C-terminal, kept
As for B2, the binding result in assay [1] is “binds”.

B3: purified untagged full-length OASL (natural protein, human, UniProt Q15646 1-514, looked up)
chain: T1 sequence (looked up)
notes: also called purified human OASL protein; source: purified
As to B3, the binding result in assay [2] is listed as “binds”.
